Key:
[1] = target: T1, HLA-A*02:01 loaded with MAGE-A9 homologue peptide, soluble biotinylated (human, UniProt P04439 25-299 at identity 0.94); P61769 21-119, biotinylated); experiment: pHLA capture ELISA: biotinylated pHLA on neutravidin, scFv-phage, anti-M13 antibody detection [cont.) C]
T1 construct: HLA monomer as for m1

[2] = target: T2, HLA-A*02:01 loaded with MAGE-A1 homologue peptide, soluble biotinylated (human, UniProt P04439 25-299 at identity 0.94); P61769 21-119, biotinylated); experiment: as above
T2 construct: HLA monomer as for m1

[3] = target: T3, HLA-A*02:01 loaded with MAGE-A3 homologue peptide, soluble biotinylated (human, UniProt P04439 25-299 at identity 0.94); P61769 21-119, biotinylated); experiment: as above
T3 construct: HLA monomer as for m1

[4] = target: T4, HLA-A*02:01 loaded with MAGE-B6 homologue peptide, soluble biotinylated (human, UniProt P04439 25-299 at identity 0.94); P61769 21-119, biotinylated); experiment: as above
T4 construct: HLA monomer as for m1

[5] = target: T5, HLA-A*02:01 loaded with MAGE-A2 homologue peptide, soluble biotinylated (human, UniProt P04439 25-299 at identity 0.94); P61769 21-119, biotinylated); experiment: as above
T5 construct: HLA monomer as for m1

[6] = target: T6, HLA-A*02:01 loaded with MAGE-A12 homologue peptide, soluble biotinylated (human, UniProt P04439 25-299 at identity 0.94); P61769 21-119, biotinylated); experiment: as above
T6 construct: HLA monomer as for m1

[7] = target: T7, HLA-A*02:01 loaded with MAGE-B4 homologue peptide, soluble biotinylated (human, UniProt P04439 25-299 at identity 0.94); P61769 21-119, biotinylated); experiment: as above
T7 construct: HLA monomer as for m1

[8] = target: T8, HLA-A*02:01 loaded with MAGE-A11 homologue peptide, soluble biotinylated (human, UniProt P04439 25-299 at identity 0.94); P61769 21-119, biotinylated); experiment: as above
T8 construct: HLA monomer as for m1

[9] = target: T9, HLA-A*02:01 loaded with MAGE-B10 homologue peptide, soluble biotinylated (human, UniProt P04439 25-299 at identity 0.94); P61769 21-119, biotinylated); experiment: as above
T9 construct: HLA monomer as for m1

[10] = target: T10, HLA-A*02:01 loaded with MAGE-B2 homologue peptide, soluble biotinylated (human, UniProt P04439 25-299 at identity 0.94); P61769 21-119, biotinylated); experiment: as above
T10 construct: HLA monomer as for m1

[11] = target: T11, HLA-A*02:01 loaded with MAGE-C2 homologue peptide, soluble biotinylated (human, UniProt P04439 25-299 at identity 0.94); P61769 21-119, biotinylated); experiment: as above
T11 construct: HLA monomer as for m1

[12] = target: T12, HLA-A*02:01 loaded with MAGE-A10 homologue peptide, soluble biotinylated (human, UniProt P04439 25-299 at identity 0.94); P61769 21-119, biotinylated); experiment: as above
T12 construct: HLA monomer as for m1

[13] = target: T13, HLA-A*02:01 loaded with MAGE-A8 homologue peptide, soluble biotinylated (human, UniProt P04439 25-299 at identity 0.94); P61769 21-119, biotinylated); experiment: pHLA phage capture ELISA
T13 construct: HLA monomer as for m1

B1: AM2 scFv displayed on phage (scFv)
scFv: QVQLVQSGAEVKKPGASVKVSCKVSGYTLTELSMHWVRQAPGKGLEWMGGFDPEDGETIYAQKFQGRVTMTEDTSTDTAYMELSSLRSEDTAVYYCATDQGSSWGFYWGQGTLVTVSSKLSGSASAPKLEEGEFSEARVDIRVTQSPSSLSASVGDRVTITCRASQNIMWYLNWYQQKPGKAPKLLIYAASSLQSGVPSRFSGSGSGTDFTLTISSLQPEDFATYYCQQSYSTPYTFGQGTKLEIK
notes: scFv on the surface of phage particles; also called AM2 phages
Does B1 bind [1]?
Result: no binding (tested: 10^9 phages/well)

Does B1 bind [2]?
Result: no binding (tested: 10^9 phages/well)

Does B1 bind [3]?
Result: no binding (tested: 10^9 phages/well)

Does B1 bind [4]?
Result: no binding (tested: 10^9 phages/well)

Does B1 bind [5]?
Result: no binding (tested: 10^9 phages/well)

Does B1 bind [6]?
Result: no binding (tested: 10^9 phages/well)

Does B1 bind [7]?
Result: no binding (tested: 10^9 phages/well)

Does B1 bind [8]?
Result: no binding (tested: 10^9 phages/well)

Does B1 bind [9]?
Result: no binding (tested: 10^9 phages/well)

Does B1 bind [10]?
Result: no binding (tested: 10^9 phages/well)

Does B1 bind [11]?
Result: no binding (tested: 10^9 phages/well)

Does B1 bind [12]?
Result: no binding (tested: 10^9 phages/well)

What about the “fold reduction of binding as compared to binding to HLA-A*02:01/MAGE-A4^230-239” value [13] of the same binder?
Its value is at least 2 fold.
